Experimental data: the supplement of paper PMC12764529
± gives the half width of the 95% confidence interval.

How the values were obtained:
[1] = folding stability dG unfold from trypsin proteolysis; higher = more stable
Summary of the method: (§1)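 Unfolding free energy was derived, per protease or combined, against a sequence-predicted unfolded-state K50 and a shared folded-state K50, starting from K50 inferred by Bayesian fitting of sequencing counts. Digestion with trypsin and chymotrypsin was carried out on designed mini-proteins under 80 residues without cysteine in a PA-tagged cDNA display construct. Only designs with AlphaFold2 dimer inter-PAE above 15 were kept.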

[2] = folding stability dG unfold from chymotrypsin proteolysis; higher = more stable
Summary of the method: as §1

[3] = folding stability dG unfold (combined trypsin and chymotrypsin); higher = more stable
Summary of the method: as §1

| Sequence | folding stability dG unfold [1] | folding stability dG unfold [2] | folding stability dG unfold [3] |
| --- | --- | --- | --- |
| SAGGAFIKDFDVEEDPNGHRKFKFELPNGWKYDITIHPDFPQIEIKPIKPIEPPPIPADDPEQAEEQSAGGS [r16_482_TrROS] | 0.699 ± 0.11 kcal/mol | 0.429 ± 0.47 kcal/mol | 0.552 ± 0.37 kcal/mol |
| SAGGAGPEKAEELARALAAELEEEGREWRFKITYSAEPEILSIDVYPLSEPLVDDAKPGYRTLYYDAPSAGG [r13_693_TrMRF] | 0.659 ± 0.093 kcal/mol | 1.19 ± 0.29 kcal/mol | 0.957 ± 0.12 kcal/mol |
| SAGGALDAIKNIAEKFGFPEIEDIDIDPDNGWLSFRFRGPEPVYIKIPWKPDKNGNLPVNIEVYPMDDSAGG [r13_410_TrROS] | 1.48 ± 0.041 kcal/mol | 1.88 ± 0.11 kcal/mol | 1.65 ± 0.13 kcal/mol |
| SAGGALEKILEAIENAPTSVPEVTVEIELPTGTLKATITNKGKPVLITIELTHPDGSKSTITLTFSLSAGGS [r16_642_TrMRF] | 2.78 ± 0.091 kcal/mol | 4.28 ± 0.079 kcal/mol | 3.78 ± 0.063 kcal/mol |
| SAGGAMPVELVETLEEIPGKGIVLRKFRDPLSDKWFLATVPVETLPNGEKKYLIELNIDGSGMTLELGSAGG [r13_993_JUSTAS] | 0.0151 ± 0.099 kcal/mol | 0.11 ± 0.22 kcal/mol | 0.173 ± 0.17 kcal/mol |
| SAGGAPVSVSTSTLPDGRTVTTTTYPSGSTTTTITDPVTGATATASSPGSGTTTFTDPATGATTVVGSAGGS [r16_91_JUSTAS] | 1.36 ± 0.053 kcal/mol | 0.635 ± 0.029 kcal/mol | 1.02 ± 0.065 kcal/mol |
| SAGGAPVTTFSLTLENPETGLNWTSTSATYDPATGTLTLNLKRPQSGESLTLTTPVTVVSPEEPELASAGGS [r8_193_JUSTAS] | 0.699 ± 0.052 kcal/mol | 0.819 ± 0.084 kcal/mol | 0.813 ± 0.11 kcal/mol |
| SAGGARVFEVTFPDGSRARIVLLPDGTLLLETDSLDNLVALLEALGVELVSIRRHPDGRVLAVARLPPSAGG [r19_257_TrMRF] | 4.49 ± 0.14 kcal/mol | 4.32 ± 0.14 kcal/mol | 4.43 ± 0.082 kcal/mol |
| SAGGASFSLSEGYDPSLGKTFTRETEAPEVPVPPVTVVPLSEIGRLKAEGVPPSWTVDPETGTVTVTSAGGS [r16_194_JUSTAS] | -0.647 ± 0.19 kcal/mol | 0.564 ± 0.072 kcal/mol | 0.258 ± 0.059 kcal/mol |
| SAGGATFAPGQTITVTVTVTLADGSTVTVTATVRIEVRAAPAPPVTVTNADGSTRTFTSAEEARAAASAGGS [r16_580_TrROS_Hall] | 1.46 ± 0.033 kcal/mol | 0.211 ± 0.25 kcal/mol | 1.01 ± 0.098 kcal/mol |
| SAGGATIELEAEEHPETKKITIYVKSENPILTIEKIAKELKEKEDDIELTLVNEDGVPYTIKLEDLISAGGS [r8_236_TrMRF] | -0.957 ± 0.47 kcal/mol | 0.38 ± 0.2 kcal/mol | 0.217 ± 0.3 kcal/mol |
| SAGGATIELEVLLEDGTLVRVRAELDEDGRLVSVEVEVRRLEPPPPPPPPERTETRVETRTEYRPEESAGGS [r8_270_TrROS_Hall] | 2.73 ± 0.35 kcal/mol | 3.23 ± 0.52 kcal/mol | 2.95 ± 0.48 kcal/mol |
| SAGGATITVEPAPGDSVVALAEFGDSLALVTFYPKEATAKVTVFGPNGIPSTATFTIKPGEELVITGSAGGS [r8_11_TrMRF] | 1.25 ± 0.079 kcal/mol | 1.59 ± 0.096 kcal/mol | 1.47 ± 0.13 kcal/mol |
| SAGGATLTLKPGDEITLTLTVTVTVTNEDGSTSTFTTTVTLTLRIEPAPPPPPVTVERDADGNLRVTLSAGG [r13_401_TrROS_Hall] | 2.35 ± 0.089 kcal/mol | 2.46 ± 0.091 kcal/mol | 2.48 ± 0.18 kcal/mol |
